From patent US9937129B2, “Materials and methods for delivering compositions to selected tissues” (The Regents of the University of California, priority 2007, dated 2018)

How the values were obtained:
[1] = Spontaneous adsorption and concentration of bevacizumab in porous SiO2; type: physicochemical; conditions: 0.125 mg/mL solution
Source text: The affinity of a porous Si particle for a particular molecule can be controlled with surface chemistry. The surface of oxidized porous Si has a point of zero charge at a pH of around 2, and so it presents a negatively charged surface to most aqueous solutions of interest. At the appropriate pH, porous SiO2 spontaneously adsorbs positively charged proteins such as serum albumin, fibrinogen, protein A, immunoglobulin G (IgG), or horseradish peroxidase, concentrating them in the process. For example, a 0.125 mg/mL solution of the monoclonal antibody bevacizumab (trade name Avastin, an anti-cancer drug) spontaneously concentrates in suitably prepared porous SiO2 by a factor of >100.

[2] = in vivo; cited from earlier work
[3] = cited from earlier work

In the case of bevacizumab [Avastin], the “Concentration factor in suitably prepared porous SiO2” value [1] is listed as > 100 factor, the “Vitreous half-life of free drug” value [2] is listed as 120 h and the IC50 [3] is listed as 0.022 µg/mL. The Therapeutically relevant dose ([3]; intraocular) was > 22 ng/mL.
